Assay results published in patent US20260209362A1 (VIB VZW, published 2026).

T1: biotinylated recombinant mouse IL-12Rβ2 (mouse, UniProt P97378 24-637, random biotinylated)
T1 construct: Recombinant protein produced in-house; also called mIL-12RB2; mouse IL-12RB2
T1 sequence: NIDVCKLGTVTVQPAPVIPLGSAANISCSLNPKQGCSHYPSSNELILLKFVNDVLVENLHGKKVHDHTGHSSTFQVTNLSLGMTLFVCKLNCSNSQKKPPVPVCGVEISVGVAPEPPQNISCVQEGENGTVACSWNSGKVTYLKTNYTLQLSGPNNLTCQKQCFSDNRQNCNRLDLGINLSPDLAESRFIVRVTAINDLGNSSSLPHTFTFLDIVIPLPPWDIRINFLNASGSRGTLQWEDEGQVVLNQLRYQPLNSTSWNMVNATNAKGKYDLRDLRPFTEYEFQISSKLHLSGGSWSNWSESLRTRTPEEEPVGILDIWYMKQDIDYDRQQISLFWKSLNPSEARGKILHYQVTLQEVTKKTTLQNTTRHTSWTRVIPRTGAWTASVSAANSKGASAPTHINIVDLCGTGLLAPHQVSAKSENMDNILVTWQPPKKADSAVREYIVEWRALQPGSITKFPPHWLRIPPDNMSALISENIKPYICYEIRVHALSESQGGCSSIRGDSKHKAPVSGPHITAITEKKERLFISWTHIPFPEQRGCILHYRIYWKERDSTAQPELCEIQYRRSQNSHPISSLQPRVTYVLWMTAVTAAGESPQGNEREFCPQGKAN

T2: biotinylated recombinant human IL-12Rβ2 (human, UniProt Q99665 24-622, random biotinylated)
T2 construct: Recombinant protein produced in-house; also called hIL-12RB2; human IL-12RB2
T2 sequence: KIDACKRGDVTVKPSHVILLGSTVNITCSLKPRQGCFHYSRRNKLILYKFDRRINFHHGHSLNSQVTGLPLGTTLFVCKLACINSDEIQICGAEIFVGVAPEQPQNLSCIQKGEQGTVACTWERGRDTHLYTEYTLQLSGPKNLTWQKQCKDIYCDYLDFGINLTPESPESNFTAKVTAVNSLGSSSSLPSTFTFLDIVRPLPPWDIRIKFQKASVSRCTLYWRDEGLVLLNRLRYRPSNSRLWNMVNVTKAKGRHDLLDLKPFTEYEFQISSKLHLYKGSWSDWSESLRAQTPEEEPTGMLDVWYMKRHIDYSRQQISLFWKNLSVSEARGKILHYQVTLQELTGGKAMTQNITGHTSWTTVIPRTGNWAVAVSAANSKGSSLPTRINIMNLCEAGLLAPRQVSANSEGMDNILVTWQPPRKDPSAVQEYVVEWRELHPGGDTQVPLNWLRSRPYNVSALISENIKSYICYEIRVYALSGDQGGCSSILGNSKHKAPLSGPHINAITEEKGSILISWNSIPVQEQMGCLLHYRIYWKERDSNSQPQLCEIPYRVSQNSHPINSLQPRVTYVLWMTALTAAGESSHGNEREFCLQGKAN


Experiments:
[1] = biological target: T1, biotinylated recombinant mouse IL-12Rβ2; test: ELISA, P.E., biotinylated antigen
[2] = biological target: T2, biotinylated recombinant human IL-12Rβ2; test: ELISA, P.E., biotinylated antigen
[3] = biological target: T2, biotinylated recombinant human IL-12Rβ2; test: BLI, P.E., off-rate ranking

Row | ELISA mIL-12RB2/control [1] | ELISA hIL-12RB2/control [2] | Response [3] | koff [3] [s⁻¹] | Binder
1 | 0.971 | 6.44 | 0.621 | 0.00491 | anti-IL-12Rβ2 VHH clone 2CRH33 (clone ID 20363) (VHH, not shown: small tags and cut ends, periplasmic extract) VHH: QVQLQESGGGSVQPGWSLRLTCAASGFTFSTSGMHWFRQAPGKGLEWVSSISSGGGDTYYTDSVKGRITISRDNAKNTLYLQLNDLKSEDTAVYYCSKDPSGATRGQGTQVTVSS
2 | 0.866 | 5.31 | 0.661 | 0.00533 | anti-IL-12Rβ2 VHH clone 2CRH60 (clone ID 20367) (VHH, not shown: small tags and cut ends, periplasmic extract) VHH: QVQLQESGGGSVQPGGSLRLTCAASGFTFSTSGMHWFRQAPGKGLEWVSSISSGGGDTYYTDSVKGRITISRDNAKNTLYLQLNDLKSEDTAVYYCSKDPSGATRGQGTQVTVSS
3 | 1.14 | 4.73 | 0.612 | 0.00508 | anti-IL-12Rβ2 VHH clone 3CAHS39 (clone ID 20393) (VHH, not shown: small tags and cut ends, periplasmic extract) VHH: QVQLQESGGGLVQAGGSLRLSCAASGRTINAYIMGWFRQAPGKEREFVAAVSGSGGSTYYADSVKGRFTISRDNAKNTVNLQMDNLRSEDTDVYYCAATYESVYLQNPGQYDYWGQGTQVTVSS
4 | 1.1 | 6.58 | 0.47 | 0.00479 | anti-IL-12Rβ2 VHH clone 3CAHS53 (clone ID 20397) (VHH, not shown: small tags and cut ends, periplasmic extract) VHH: QVQLQESGGGLVEPGGSLRLSCAASGRTINAYIMGWFRQAPGKEREFVAAVSGSGGSTYYADSVKGRFTISRDSAKNTVNLQMDNLRSEDTDVYYCAATYESVYLQNPGQYDYWGQGTQVTVSS
5 | 1.22 | 10 | 0.508 | 0.00422 | anti-IL-12Rβ2 VHH clone 3CAHS52 (clone ID 20396) (VHH, not shown: small tags and cut ends, periplasmic extract) VHH: QVQLQESGGGSVQAGGSLRLSCAASGRTINAYIMGWFRQAPGKEREFVAAVSGSGGSTYYADSVKGRFTISRDNAKNTVNLQMDNLRSEDTDVYYCAATYESVYLQNPGQYDYWGQGTQVTVSS
6 | 0.988 | 4.54 | 0.31 | 0.00369 | anti-IL-12Rβ2 VHH clone 3CAHS150 (clone ID 20403) (VHH, not shown: small tags and cut ends, periplasmic extract) VHH: QVQLQESGGGSVQAGGSLRLSCAASGRTINAYVMGWFRQAPGKEREFVAAISGSGGSTYYADSVKGRFTISRDNAKNTVNLQMDNLRSEDTDVYYCAATYESVYLQNPGQYDYWGQGTQVTVSS
7 | 1 | 5.67 | 0.293 | 0.00324 | anti-IL-12Rβ2 VHH clone 3CAHS124 (clone ID 20400) (VHH, not shown: small tags and cut ends, periplasmic extract) VHH: QVQLQESGGGLVQPGGSLRLSCAASGRTINAYIMGWFRQAPGKEREFVAAVSGSGGSTYYADSVKGRFTISRDNAKNTVNLQMDNLRSEDTDVYYCAATYESVYLQNPGQYDYWGQGTQVTVSS
8 | 1.31 | 8.23 | 0.605 | 0.00485 | anti-IL-12Rβ2 VHH clone 3CAHS43 (clone ID 20395) (VHH, not shown: small tags and cut ends, periplasmic extract) VHH: QVQLQESGGGSVQAGGSLRLSCAASGRTINAYIMGWFRQAPGKEREFVAAVSGSGGSTYYADSVKGRFTISRDNAKNTVNLQMDNLRSEDTDVYYCAATYESVYLRNPGQYDYWGQGTQVTVSS
9 | 1.01 | 6.74 | 0.3 | 0.00283 | anti-IL-12Rβ2 VHH clone 3CRHS1 (clone ID 20412) (VHH, not shown: small tags and cut ends, periplasmic extract) VHH: QVQLQESGGGSVQPGGSLRLSCAASGFTFSTSGMHWFRQAPGKGLEWVSSIGIIVDSSYYASSVKGRFTISRDNAKNTLYLQMNSLKSEDTAVYYCSKDPTGSSRGQGTQVTVSS
10 | 1.07 | 3.18 | 0.745 | 0.0374 | anti-IL-12Rβ2 VHH clone 3CRHS109 (clone ID 20430) (VHH, not shown: small tags and cut ends, periplasmic extract) VHH: QVQLQESGGGLVQPGGSLRLSCAASGFTFSTSGMHWFRQAPGKGLEWVSSIGIIVDSSYYASSVKGRFTISRDNAKNTLYLHMNSLKSEDTAVYYCSKDVTGSSRGQGTQVTVSS
11 | 0.828 | 4.75 | 0.296 | 0.00243 | anti-IL-12Rβ2 VHH clone 3CRH43 (clone ID 20382) (VHH, not shown: small tags and cut ends, periplasmic extract) VHH: QVQLQESGGGSVQPGGSLRLSCAASGFTFSTSGMHWFRQAPGKGLEWVSSIGIIVDSSYYASSVKGRFTISRDNAKNIVYLQMNSLKSEDTAVYYCSKDPTGSSRGQGTQVTVSS
12 | 0.984 | 3.65 | 0.294 | 0.00274 | anti-IL-12Rβ2 VHH clone 3CRHS128 (clone ID 20432) (VHH, not shown: small tags and cut ends, periplasmic extract) VHH: QVQLQESGGGLVQPGGSLRLSCAASGFTFSTSGMHWFRQAPGKGLEWVSSIGATVDNSYYASSVKGRFTISRDNAKNTLYLLMNSLKSEDTAVYYCSKDPTGSSRGQGTQVTVSS
13 | 1.19 | 5.51 | 0.438 | 0.00328 | anti-IL-12Rβ2 VHH clone 3CRH14 (clone ID 20374) (VHH, not shown: small tags and cut ends, periplasmic extract) VHH: QVQLQESGGGLVQPGGSLRLSCAASGFTFSTSGMHWFRQAPGKGLEWVSSIGIIVDSSYYADSVKGRFTISRDNAKNTLFLQMNSLKSEDTAVYYCSKDPTGSSRGQGTQVTVSS
14 | 1.23 | 5.01 | 0.53 | 0.00353 | anti-IL-12Rβ2 VHH clone 2CRH80 (clone ID 20371) (VHH, not shown: small tags and cut ends, periplasmic extract) VHH: QVQLQESGGGLVQPGGSLRLSCAASGFTFSTSGMHWFRQAPGKGLEWVSSIGIIVGSSYYASSVKGRFTISRDNAKNTLYLHMNSLKSEDTAVYYCSKDVTGSSRGQGTQVTVSS
15 | 1.39 | 4.58 | 0.427 | 0.00361 | anti-IL-12Rβ2 VHH clone 3CRH45 (clone ID 20383) (VHH, not shown: small tags and cut ends, periplasmic extract) VHH: QVQLQESGGGLVQPGGSLRLSCAASGFTFSTFGMHWFRQAPGKGLEWVSSIGIIDDNSYYASSVKGRFTISRDNAKNTLYLQMNSLKSEDTAVYYCSKDTTGSSRGQGTQVTVSS
16 | 1.05 | 5.88 | 0.209 | 0.00322 | anti-IL-12Rβ2 VHH clone 3CRHS100 (clone ID 20428) (VHH, not shown: small tags and cut ends, periplasmic extract) VHH: QVQLQESGGGLVQPGGSLRLSCTASGSIFSIYNMDWYRQAPGNQREWVASITPSGDPYYDDSAKGRFTISRDNAKMTVYLQMNSLKPEDTAVYYCKVPTEKGNYWGQGTQVTVSS
17 | 0.74 | 3.36 | 0.0184 | – | anti-IL-12Rβ2 VHH clone 3CRHS148 (clone ID 20436) (VHH, not shown: small tags and cut ends, periplasmic extract) VHH: QVQLQESGGGLVQPGGSLRLSCIASGSIFSIYNMDWYRQAPGNQREWVASITPSGDPYYDDSAKGRFTISRDNAKMTVYLQMNSLKPEDTAVYYCKVPTEKGNYWGQGTQVTVSS
18 | 0.945 | 5.87 | 0.515 | 0.00379 | anti-IL-12Rβ2 VHH clone 3CAHS170 (clone ID 20406) (VHH, not shown: small tags and cut ends, periplasmic extract) VHH: QVQLQESGGGLVQAGGSLRLSCVASGRTFSSYAMGWFRQGPGKEREFVAAISWSGVSIYYADSVKGRFTISRDNAKNTVYLQMNSLEPEDTAVYYCAGTEGAYTVAGGSTFGYDMDYWGKGTQVTVSS
19 | 1.85 | 11.8 | 0.475 | 0.00413 | anti-IL-12Rβ2 VHH clone 3CRH38 (clone ID 20381) (VHH, not shown: small tags and cut ends, periplasmic extract) VHH: QVQLQESGGGLVQAGGSLVLSCAASGSAALIFLMSWYRQAPGKQRELVAEVSRGGSTTYADSVEGRFTISRDNAKNIVDLQMNSLKPEDTAVYYCKADQNYGDSLRSSWGRGTQVTVSS
20 | 1.01 | 5.59 | 0.5 | 0.00404 | anti-IL-12Rβ2 VHH clone 3CRHS2 (clone ID 20413) (VHH, not shown: small tags and cut ends, periplasmic extract) VHH: QVQLQESGGGLVQLGGSLTLSCAASGSAALIFLMSWYRQAPGKQRELVAEVSRYGSTTYADSVEGRFTISRDNAKNIVDLQMNSLKPEDTAVYYCKADQYYGDSLRSSWGRGTQVTVSS
21 | 0.967 | 5.51 | 0.652 | 0.00598 | anti-IL-12Rβ2 VHH clone 2CRH53 (clone ID 20366) (VHH, not shown: small tags and cut ends, periplasmic extract) VHH: QVQLQESGGGLVQAGGSLVLSCAASGSAALIFLMSWYRQAPGKQRELVAEVSRYGSTTYADSVEGRFTISRDNAKDIVDLQMNSLKPEDTAVYYCKADQYYGDSLRSSWGRGTQVTVSS
